From patent US20230399384A1 (University of Texas, published 2023)
Numbering of substitutions follows the chain as printed.

What was measured:
S protein of SARS-CoV = S protein of SARS-CoV (SARS-CoV, UniProt P59594 14-1195); test: ELISA, purified IgG1 on coated S protein
[1] = biological target: T1, sCoV2-RBD (Fc-tagged RBD of SARS-CoV-2 S protein) (SARS-CoV-2; human, UniProt P0DTC2 319-541); test: ELISA titration on coated sCoV2-RBD
[2] = biological target: T1, sCoV2-RBD (Fc-tagged RBD of SARS-CoV-2 …); test: BLI (Octet) blocking of ACE2 binding to captured sCoV2-RBD
[3] = biological target: sCoV-RBD (Fc-tagged RBD of SARS-CoV S protein) (SARS-CoV; human, UniProt P59594 306-527); test: phage ELISA, scFv on phage
[4] = biological target: SARS-CoV-2 RBD protein (Sino Biological, Cat: 40592-V08B) (SARS-CoV-2, UniProt P0DTC2 319-541); test: BLI (Octet), mAb on Protein A sensor
[5] = biological target: SARS-CoV-2 S protein on live SARS-CoV-2-mNG reporter virus (SARS-CoV-2, UniProt P0DTC2 14-1273); test: cell-based or functional assay

B1: CoV2-03 (antibody, V domains shown)
VH: QVQLVESGAEMKKPGASVKVSCKTSGYTFTNSYIHWVRQAPGQGLEWMGWINPISGGTNYAQKFQGRVTMTRDTSINTAYMELSRLRSDDTAVYYCARDRGDYDYGWGTSPFYFDYWGQGTLVTVSS
VL: not shown
binding result (S protein of SARS-CoV): no binding (tested: one concentration, not printed) | EC50 [1]: 3.35 nM | IC50 [2]: 14.8 µg/mL | binding result [3]: no binding

B2: CoV2-19 (antibody, V domains shown)
VH: B1 VH with E6Q
VL: AIQLTQSPSSLSASVGDRVTITCRTSHTVNSYLNWYQQEPGKAPKLLIYAASNLQSGVPSRFSGSGSGTDFSLTIHNLQPEDFATYYCQQSYRTPLTFGQGTKVDIK
binding result (S protein of SARS-CoV): no binding (tested: one concentration, not printed) | EC50 [1]: 5.02 nM | IC50 [2]: 14.5 µg/mL | Kd [4]: 138 nM | koff [4]: 0.00137 s⁻¹ | kon [4]: 9870 M⁻¹ s⁻¹ | binding result [3]: no binding

B3: CoV2-02 (antibody, V domains shown)
VH: B1 VH with L4M, E6Q, T124S
VL: AIQMTQSPSSLSASVGDRVTITCRASQPISKYLNWYQQKPGKAPKLLIYAASSLQSGVPSSFSGSGFGTDFTLTISNLQPEDFATYYCQQSNGIPLTFGGGTKVDIK
binding result (S protein of SARS-CoV): no binding (tested: one concentration, not printed) | EC50 [1]: 0.47 nM | IC50 [2]: 17.7 µg/mL | Kd [4]: 7.85 nM | koff [4]: 0.000499 s⁻¹ | kon [4]: 63500 M⁻¹ s⁻¹ | binding result [3]: no binding

B4: CoV2-22 (antibody, V domains shown)
VH: B1 VH with E6Q
VL: DVQMTQSPSSLSASVGDRVTITCRASQSISSYLNWYQQKPGKAPKLLIYGASSLESGVPSRFSGGGSGTDFTLTISSLQPEDFASYYCQQSYSIPFTFGPGTTVDIK
binding result (S protein of SARS-CoV): no binding (tested: one concentration, not printed) | EC50 [1]: 3.41 nM | binding result [3]: no binding

B5: CoV2-13 (antibody, V domains shown)
VH: QVQLQQSGAEVKKPGSSVKVSCKASGGNFRSHTFSWVRQAPGQGLEWMGEIMPRFGATNYAQKFQGRVTITADESTGTTYMELSSLKSHDTAVYFCAADLGSGRKFDSWAQGTLVSVSS
VL: NIQMTQSPSSLSASVGDRVTITCRASQGIGSDLGWYQQRPGKAPKRLIYAASSLQSGVPSRFSGSGSGTEFTLTISSLQPEDFATYYCLQHNSYPLTFGQGTKVEIK
EC50 [1]: 0.17 nM | IC50 [2]: 2.29 µg/mL | Kd [4]: 50.7 nM | koff [4]: 0.00103 s⁻¹ | kon [4]: 20300 M⁻¹ s⁻¹

B6: CoV2-26 (antibody, V domains shown)
VH: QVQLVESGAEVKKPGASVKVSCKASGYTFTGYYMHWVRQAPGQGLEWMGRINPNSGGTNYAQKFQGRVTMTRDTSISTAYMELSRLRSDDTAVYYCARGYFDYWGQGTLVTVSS
VL: QSALTQPPSASGTPGQRVTISCSGSSSNIGSNSVNWYQQVPGTAPKLLIYANDHRPSGVPDRFSGSKSGTSASLAISGLQSEDEADYYCAAWDNSLKGVVFGGGTKVTVL
NC50 (neutralisation of reporter SARS-CoV-2, Vero E6 cells) [5]: 0.41 µg/mL

B7: CoV2-23 (antibody, V domains shown)
VH: QVQLVESGGGLVQPGRSLRLSCAASGFTFDDYAMHWVRQAPGKGLEWVSGISWNSGSIGYADSVKGRFTISRDNAKNSLYLQMNSLRAEDTALYYCAKDMDIWFGGGLDYWGQGTLVSVSS
VL: DVQMTQSPSSVSASVGDRVTITCRASEGIGNWLAWYQQKPGKAPKLLIYEASSLQSGVPSRFSGSGSGADFTLTISSLQPEDFGTYYCLQANSFPITFGRGTKLEIK
EC50 [1]: 1.04 nM

B8: CoV2-14 (antibody, V domains shown)
VH: EVQLQQSGPGLVKPSQTLSLTCAISGDSVSSNSAAWNWIRQSPSRGLEWLGRTYYRSKWYNDYAVSVKSRITINPDTSKNQFSLQLNSVTPEDTAVYYCAREEQQLVHDYYYYGMDVWGQGTMVTVSS
VL: QAVVTQPASVSGSPGQSITISCTGTSSDIGAYNYISWYQQHPGKAPKLIIYEVSNRPSGISYRFSGSKSGNTASLTISGLQAEDEANYYCSSYAGSISFGGGTKVTVL
NC50 (neutralisation of reporter SARS-CoV-2, Vero E6 cells) [5]: 0.46 µg/mL

B9: CoV2-09 (antibody, V domains shown)
VH: QVQLHQWGAGLLKPSETLSRTCAVYGGSFSGYYWTWIRQAPGKGLEWIGEINHGGSTRYNPSLESRVSISVDTSKKQFSLELRSVTAADTAIYYCARGYDTNWYGDGYNWFDPWDRGTLVTVSS
VL: QSALTQDPSVSVALGQTVRITCQGDSLRGSFASWYRQKPGQAPVLVIFGINNRPSGVPDRFSGSSSGNTASLTITGAQAEDEADYYCNSRESNSNRILFGGGTKVTVL
NC50 (neutralisation of reporter SARS-CoV-2, Vero E6 cells) [5]: 0.66 µg/mL

B10: CoV2-16 (antibody, V domains shown)
VH: B9 VH
VL: QAVVTQPPSVSGTPGQRVTISCSGSSSSIGSNTVHWYQHLPGTAPKLLMYNNNERPSGVPARFSGSKSGTSASLVITGLQADDEAEYYCQSYDTGLSGHVFGSGTELTVL
NC50 (neutralisation of reporter SARS-CoV-2, Vero E6 cells) [5]: 0.82 µg/mL

B11: CoV2-24 (antibody, V domains shown)
VH: QVQLHQWGAGLLKPSETLSRTCAVYGGSFSGYYWTWIRQAPGKGLEWIGEINHGGSTRYNPSLESRVSISVDTSKKQFSLELRSVTAADTAIYYCARGLVGGGAFDIWGQGTMVTVSS
VL: NFMLTQPSSVSVAPGQTARITCGGDNIGSTGVHWYQQKPGQAPVLVVYDDTDRPSGIPERFSGSKSGNTAALTISGVEAGDEADFYCQVWDSSGHSYVFGTGTKVTVL
binding result (S protein of SARS-CoV): no binding (tested: one concentration, not printed) | EC50 [1]: 29.7 nM | binding result [3]: no binding

B12: CoV2-05 (antibody, V domains shown)
VH: EVQLVESGGGVARPGGSLRLSCAASGFTFDDYGMSWVRQVPGKGLEWVAGINWNGERIGYADSVKGRFTISRDNAKNSLYLQMNSLRAEDTALYYCARPSGDYVAWYFNLWGRGTLVTVSS
VL: QAALTQPRSVSGSPGQSVTISCTGTGSDVGPYKYVSWYQQHPGKAPKLMIYDVNERPSGVPDRFSGSKSGNTASLTISGLQAEDEADYYCGSYAGNNKWVFGGGTKLTVL
binding result (S protein of SARS-CoV): no binding (tested: one concentration, not printed) | EC50 [1]: 7.82 nM | IC50 [2]: 4.18 µg/mL | Kd [4]: 7.16 nM | koff [4]: 0.000602 s⁻¹ | kon [4]: 84100 M⁻¹ s⁻¹ | binding result [3]: no binding

B13: 07 (antibody, V domains shown)
VH: EVQLVESGGGVFQPGRSLRLSCAASGFTFSDFGMHWVRQAPGKGLEWVAVTSHDGSSKFYADSVKGRFTVSRDNSKNKLYLEMNSLRVEDSAVYYCAKDSDNGYDADFFDYWGQGTLVTVSS
VL: not shown
notes: also called CoV2-07; phage clone 07
binding result [3]: no binding

B14: CoV2-06 (antibody, V domains shown)
VH: QVELQESGPGLVKPSGTLSLTCAVSGGSISSNNWWTWVRQPPGKGLEWIGEIHHSGGTNYNPSLKSRVTMSVDKSKNQFSLNLYSVTAADTAVYYCTRDRAGGTYSGFDFWGQGTLVTVSS
VL: QAVVTQPASVSGSPGQSITISCTGTSSDVGGYNYVSWYQQHPGKAPKLMIYDVSNRPSGVSNRFSGSKSGNTASLTISGLQAEDEADYYCSSYTSSSTVVFGGGTKVTVL
NC50 (neutralisation of reporter SARS-CoV-2, Vero E6 cells) [5]: 0.15 µg/mL

B15: CoV2-28 (antibody, V domains shown)
VH: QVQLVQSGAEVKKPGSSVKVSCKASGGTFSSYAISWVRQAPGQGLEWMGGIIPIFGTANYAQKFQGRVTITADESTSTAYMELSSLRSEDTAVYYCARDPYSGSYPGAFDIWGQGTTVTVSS
VL: B14 VL with S91N, S95R, V99S, G103T, K106Q, V107L
binding result (S protein of SARS-CoV): no binding (tested: one concentration, not printed) | EC50 [1]: 130 nM | binding result [3]: no binding
